Test results from patent publication US12559863B2, “Macrocyclic modulators of disease associated protein misfolding and aggregation” (RESQ BIOTECH, priority 2017, dated 2026).

Target: T1, Aβ42-GFP (Homo sapiens, UniProt P05067)
T1 construct: a chimeric fusion of the human Aβ(1-42) peptide (Aβ42) with GFP; expressed in transfected cells; host or cells: E. coli BL21(DE3)
Assay: High-throughput sequencing of pSICLOPPS vectors isolated after bacterial sorting for enhanced Aβ42-GFP fluorescence
Conditions: for Reads/Total TXXXR reads (%) / Reads/Total pentapeptide reads (%) / Reads/Total peptide reads (%): after the second round of bacterial sorting; for Reads/Total TXXXR reads (%): relative to total TXXXR reads; for Reads/Total pentapeptide reads (%): relative to total pentapeptide reads; for Reads/Total peptide reads (%): relative to total peptide reads; for Number of reads: high-throughput sequencing of isolated pSICLOPPS-NuX1X2X3-X5 vectors after the second round of bacterial sorting for enhanced Aβ42-GFP fluorescence, selected cyclo-TXXXR pentapeptides
From the text: On the other hand, very few bioactive sequences resembling AβC5-34 should exist. […] The peptide-encoding vectors contained in these clones were isolated and the peptide-encoding region of approximately 5.6 million of these plasmids was sequenced using an Ion Torrent high-throughput sequencing platform. […] First, pentapeptides were the dominant peptide species within the sorted pool (FIG. 12D), in agreement with previous observations (FIG. 8G). Second, the most prevalent motif among the selected pentapeptide sequences were TXXXR pentapeptides (˜47% of the selected pentapeptide-encoding pSICLOPPS plasmids; ˜42% of the unique selected pentapeptide sequences) (Table 1), in accordance with previous observations (FIG. 8G). […] At position 2, Thr, Ala, and Val were preferred, while aromatic residues (Phe, Trp, Tyr) were completely excluded from the selected TXXXR peptide pool, in full agreement with our site-directed mutagenesis studies. At the highly variable position 3, the complete absence of the negatively charged amino acids Glu and Asp among the selected sequences was notable (FIG. 12E). […] It is noteworthy, that Lys and Gln residues were practically absent from all positions, while the β sheet-breaking amino acid Pro that is typically included in designed peptide-based inhibitors of amyloid aggregation appeared with strikingly low frequencies (FIG. 12E).
Electrocompetent E. coli BL21(DE3) cells (Novagen, USA) carrying either the expression vector pETSOD1(A4V)-GFP, which produces SOD1(A4V)-GFP under control of the strong bacteriophage T7 promoter, or pETAβ42-GFP, which produces Aβ42-GFP under control of the T7 promoter, were co-transformed with the combined pSICLOPPS-NuX1X2X3-X5 vector library. Approximately 10^8 transformants carrying both the vector library and either pETSOD1(A4V)-GFP or pETAβ42-GFP vectors were harvested, pooled together, and grown in Luria-Bertani (LB) liquid medium containing either 0.005% (pETSOD1(A4F)-GFP) or 0.002% (pETAβ42-GFP) L-arabinose—the inducer of cyclic peptide production—at 37° C. with shaking. When the optical density at 600 nm (OD600) of the bacterial culture was about 0.5, 0.01 (pETSOD1(A4F)-GFP) or 0.1 (pETAβ42-GFP) mM isopropyl-β-D-thiogalactoside (IPTG) was added to the medium to induce overexpression of the reporter. […] The isolated cells were re-grown and screened for additional rounds in an identical manner until the desired enrichment in high-fluorescence clones was achieved.
For the characterization of the initial libraries, a combined pSICLOPPS-NuX1X2X3-X5 vector library was prepared containing approximately equal amounts of each one of the tetra-, penta- and hexapeptide sub-libraries. These samples were digested with NcoI and BsrGI and the resulting ˜250 bp product that contained the variable peptide-encoding region was isolated. High-throughput sequencing analysis was performed using an Ion Torrent high-throughput sequencing platform. From the obtained data, all the sequences with mismatches outside of the variable peptide-encoding region were removed, and only the 12-, 15- or 18-bp-long peptide-encoding sequences were subjected to further analysis. The libraries of the selected cyclic peptides that enhance either SOD1(A4V)-GFP or Aβ42-GFP fluorescence were sequenced in a similar manner, with the only exception being that all sequences including stop codons were discarded from subsequent analysis.

Substance	Reads/Total TXXXR reads (%)	Reads/Total pentapeptide reads (%)	Reads/Total peptide reads (%)	Number of reads
AβC5-130 (TAYHR; cyclic)	0.136%	0.064%	0.057%	2,594
AβC5-136 (TALHR; cyclic)	0.107%	0.050%	0.045%	2,026
AβC5-139 (TTSPR; cyclic)	0.100%	0.047%	0.042%	1,904
AβC5-146 (TTWSR; cyclic)	0.085%	0.040%	0.036%	1,612
AβC5-147 (TAMHR; cyclic)	0.085%	0.040%	0.036%	1,611
AβC5-155 (TSLDR; cyclic)	0.066%	0.031%	0.028%	1,251
AβC5-158 (TTGAR; cyclic)	0.062%	0.029%	0.026%	1,172
AβC5-162 (TSVWR; cyclic)	0.058%	0.027%	0.024%	1,094
AβC5-173 (TTHAR; cyclic)	0.050%	0.023%	0.021%	953
AβC5-176 (TAGWR; cyclic)	0.050%	0.023%	0.021%	945
AβC5-177 (TATAR; cyclic)	0.049%	0.023%	0.020%	925
AβC5-184 (TVLAR; cyclic)	0.043%	0.020%	0.018%	818
AβC5-185 (TTFNR; cyclic)	0.042%	0.020%	0.018%	800
AβC5-188 (TGMRR; cyclic)	0.040%	0.019%	0.017%	768
AβC5-190 (TLCLR; cyclic)	0.039%	0.018%	0.016%	739
AβC5-215 (TTPWR; cyclic)	0.028%	0.013%	0.012%	524
AβC5-218 (TVLHR; cyclic)	0.026%	0.012%	0.011%	497
AβC5-223 (TGLDR; cyclic)	0.024%	0.011%	0.010%	464
AβC5-239 (TTMHR; cyclic)	0.020%	0.009%	0.008%	384
